Data from US20220002412A1 (SINOCELLTECH, published 2022).

Key:
[1] = biological target: T1, recombinant human PD-1 protein (Sino Biological, Inc, Cat. 10377-H08H) (human, UniProt Q15116 25-167); assay: competition ELISA: coated recombinant human PD-1, blocked ligand PD-L1-Fc-biotin, antibody at three concentrations
[2] = biological target: T2, recombinant monkey PD-1 protein (monkey, UniProt B0LAJ3 25-170, Biotinylated in the Octet assay; the site of biotinylation is not stated.); assay: Octet (BLI), biotinylated monkey PD-1
T2 construct: Bought protein; also called biotinylated monkey PD-1 protein
T2 sequence (B0LAJ3 entry or part of it limits assumed): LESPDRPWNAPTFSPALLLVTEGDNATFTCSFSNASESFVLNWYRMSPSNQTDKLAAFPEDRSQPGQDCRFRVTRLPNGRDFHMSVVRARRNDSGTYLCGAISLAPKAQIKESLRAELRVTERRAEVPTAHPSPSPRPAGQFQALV

[3] = biological target: T3, recombinant mouse PD-1 protein (mouse, UniProt Q02242 25-167, limits assumed, biotinylated in the Octet assay); assay: Octet biolayer interferometry on biotinylated mouse PD-1 protein
T3 construct: Bought protein; also called murine PD-1; biotinylated mouse PD-1 protein
T3 sequence (looked up): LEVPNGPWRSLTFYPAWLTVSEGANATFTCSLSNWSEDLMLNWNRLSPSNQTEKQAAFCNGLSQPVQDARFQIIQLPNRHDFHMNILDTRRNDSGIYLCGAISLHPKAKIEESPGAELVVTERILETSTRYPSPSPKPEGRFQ

[4] = biological target: T2, recombinant monkey PD-1 protein; assay: indirect ELISA, coated antigen titrated (antigenic EC50), antibody at 2 µg/mL
[5] = biological target: T4, biotinylated FCGRT-His+B2M protein (human, UniProt P55899 24-297; P61769 21-119, biotinylated); assay: ELISA at pH 6.0, biotinylated FCGRT-His+B2M captured on avidin, antibody at 270 µg/mL
T4 construct: Bought from Sino Biological; also called recombinant human FcRn protein; human FcRn protein
T4 sequence (P55899 24-297 limits assumed, chain 1 of 2): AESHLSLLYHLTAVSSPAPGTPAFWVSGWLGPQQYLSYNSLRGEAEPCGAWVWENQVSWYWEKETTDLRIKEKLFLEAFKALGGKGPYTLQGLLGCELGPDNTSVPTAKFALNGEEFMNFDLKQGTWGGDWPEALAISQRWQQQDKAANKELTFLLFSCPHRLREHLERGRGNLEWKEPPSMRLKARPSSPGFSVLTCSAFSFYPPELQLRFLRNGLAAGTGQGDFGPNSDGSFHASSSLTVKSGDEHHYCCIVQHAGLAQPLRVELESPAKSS
T4 sequence (P61769 21-119 limits assumed, chain 2 of 2): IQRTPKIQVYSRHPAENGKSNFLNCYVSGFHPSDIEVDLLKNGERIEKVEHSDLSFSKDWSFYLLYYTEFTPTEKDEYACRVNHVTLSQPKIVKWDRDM

[6] = biological target: T5, recombinant CD16a-AVI-His (V158)+BirA protein (UniProt P08637 17-208, +BirA (AVI tag, detected with streptavidin/HRP)); assay: ELISA: antibody titrated on coated recombinant human PD-1, then recombinant CD16a-AVI-His (V158)+BirA with streptavidin/HRP
T5 construct: Bought from Sino Biological; It is the V158 allotype as printed; also called recombinant CD16a (V158) protein; recombinant CD16a protein
T5 sequence (P08637 17-208 F176V limits assumed): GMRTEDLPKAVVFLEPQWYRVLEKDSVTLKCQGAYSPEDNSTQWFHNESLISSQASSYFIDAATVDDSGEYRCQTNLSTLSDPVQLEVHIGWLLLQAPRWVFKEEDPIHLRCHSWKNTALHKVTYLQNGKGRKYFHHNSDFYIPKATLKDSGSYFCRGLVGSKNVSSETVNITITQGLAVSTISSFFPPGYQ

[7] = biological target: T1, recombinant human PD-1 protein (Sino …); assay: monoclonal phage ELISA on recombinant human PD-1 protein
[8] = biological target: T2, recombinant monkey PD-1 protein; assay: indirect ELISA, coated antigen titrated, antibody at 2 µg/mL

T1 sequence (Q15116 25-167 limits assumed): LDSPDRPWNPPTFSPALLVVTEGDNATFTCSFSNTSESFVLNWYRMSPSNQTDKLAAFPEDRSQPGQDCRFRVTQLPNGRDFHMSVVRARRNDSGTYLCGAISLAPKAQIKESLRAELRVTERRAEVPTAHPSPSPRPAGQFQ

B1: murine antibody PD1-M944 (antibody, mouse IgG1, V domains shown)
VH: EVQLVESGGGLVKPGGSLKLSCAASGFTFSSYGMSWVRQTPEKRLEWVATISGGGRDTYYSDSVKGRFTVSRDNAKNNLFLQMSSLRSEDTALYYCSRQYGTVWFFNWGQGTLVTVSA
VL: not shown
notes: Full antibody with mouse IgG1 heavy chain constant region and mouse kappa light chain constant region; Expressed in HEK-293 cells
**Q.** Does B1 bind [1]?
**A.** binds

B2: humanized antibody PD1-H944 (antibody, human IgG4 S228P, kappa)
heavy: not shown
light: EIVLTQSPATLSLSPGERATLSCRASESVDSYGNSFMHWYQQKPGQPPRLLIYAASNQGSGVPARFSGSGSGTDFTLTISSLEPEDFAMYFCQQSKEVPWTFGQGTKVEIKRTVAAPSVFIFPPSDEQLKSGTASVVCLLNNFYPREAKVQWKVDNALQSGNSQESVTEQDSKDSTYSLSSTLTLSKADYEKHKVYACEVTHQGLSSPVTKSFNRGEC
**Q.** Which Kd [2] does the source give for B2 here?
**A.** 0.108 nM

**Q.** Does B2 bind [3]?
**A.** no binding (tested: 13.30 nM)

**Q.** What about the EC50 [4] of the same binder?
**A.** 0.0327 µg/mL

**Q.** And the “binding relative to Nivolumab at 270 µg/mL” value [5]?
**A.** ~1.62 times

**Q.** Does B2 bind [6]?
**A.** no binding (tested: 80 µg/mL)

B3: M944 scFv antibody (scFv)
scFv: DIVLTQSPASLAVSLGQRATISCRASESVDSYGNSFMHWYQQKPGQPPKLLIYAASNQGSGVPARFSGSGSGTDFSLNIHPMEEDDTAMYFCQQSKEVPWTFGGGTKLEIKSSGGGGSGGGGGGSSRSSEVQLVESGGGLVKPGGSLKLSCAASGFTFSSYGMSWVRQTPEKRLEWVATISGGGRDTYYSDSVKGRFTVSRDNAKNNLFLQMSSLRSEDTALYYCSRQYGTVWFFNWGQGTLVTVSA
notes: Tested as a monoclonal phage clone (pComb3x phage display); Any phage fusion partner is not described; also called PD1-M944 scFv
**Q.** Does B3 bind [7]?
**A.** binds

B4: Nivolumab (antibody, V domains shown)
VH: QVQLVESGGGVVQPGRSLRLDCKASGITFSNSGMHWVRQAPGKGLEWVAVIWYDGSKRYYADSVKGRFTISRDNSKNTLFLQMNSLRAEDTAVYYCATNDDYWGQGTLVTVSS
VL: EIVLTQSPATLSLSPGERATLSCRASQSVSSYLAWYQQKPGQAPRLLIYDASNRATGIPARFSGSGSGTDFTLTISSLEPEDFAVYYCQQSSNWPRTFGQGTKVEIK
**Q.** For B4, which Kd [2] is on record?
**A.** 0.131 nM

**Q.** What about the EC50 [8] of the same binder?
**A.** 0.0802 µg/mL
